Paper PMC10786891, “Massively parallel profiling of RNA-targeting CRISPR-Cas13d”
Numbering of substitutions follows the chain as printed.

T1: EsCas13d, nuclease-dead (Eubacterium siraeum, UniProt B0MS50, R295A;H300A;R849A;H854A)
T1 sequence: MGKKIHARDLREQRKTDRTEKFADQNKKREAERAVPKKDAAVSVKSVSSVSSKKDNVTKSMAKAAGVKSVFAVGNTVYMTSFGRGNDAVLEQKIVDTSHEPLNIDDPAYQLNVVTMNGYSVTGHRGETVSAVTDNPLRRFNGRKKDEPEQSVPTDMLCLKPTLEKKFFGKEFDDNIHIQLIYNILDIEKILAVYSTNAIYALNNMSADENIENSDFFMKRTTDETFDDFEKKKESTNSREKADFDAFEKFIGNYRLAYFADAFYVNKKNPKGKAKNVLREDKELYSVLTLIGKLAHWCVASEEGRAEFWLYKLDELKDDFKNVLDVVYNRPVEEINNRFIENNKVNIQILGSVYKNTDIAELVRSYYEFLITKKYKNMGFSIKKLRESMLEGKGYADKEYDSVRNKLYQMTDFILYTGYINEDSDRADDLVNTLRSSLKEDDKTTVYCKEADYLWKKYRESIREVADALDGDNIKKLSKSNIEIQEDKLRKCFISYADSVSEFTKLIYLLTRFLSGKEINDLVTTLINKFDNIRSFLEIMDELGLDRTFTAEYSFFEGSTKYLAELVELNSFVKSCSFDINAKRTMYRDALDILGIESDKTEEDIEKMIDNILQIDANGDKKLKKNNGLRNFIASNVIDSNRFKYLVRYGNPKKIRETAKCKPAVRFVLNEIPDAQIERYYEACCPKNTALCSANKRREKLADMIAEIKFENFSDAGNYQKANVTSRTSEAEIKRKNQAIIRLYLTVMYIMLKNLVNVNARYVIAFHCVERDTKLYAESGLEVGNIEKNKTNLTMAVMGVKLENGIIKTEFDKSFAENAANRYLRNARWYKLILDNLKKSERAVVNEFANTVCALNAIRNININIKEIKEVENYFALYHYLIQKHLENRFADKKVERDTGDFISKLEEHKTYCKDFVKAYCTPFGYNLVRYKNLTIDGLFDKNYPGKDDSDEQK

B1: target 1 MT 5'PFS GAA 3'PFS CUU (mixed)
RNA 1: CACCCGUGCAAAAAUGCAGGGGUCUAAAACUGAGCGGAUAACCUCUCUAUGG
RNA 2: GGGAAUGGAUCCACAUCUACGAAUUCGAACCAUAGAGAGGUUAUCCGCUCACUUAGAUCGGAAGAGCACACGU
B2: target 1 MT 5'PFS ACA 3'PFS AGG (mixed)
RNA 1: B1 RNA 1
RNA 2: B1 RNA 2 with G27A, A28C, C52A, U53G, U54G
B3: target 1 MT 5'PFS GAC 3'PFS CGA (mixed)
RNA 1: B1 RNA 1
RNA 2: B1 RNA 2 with A29C, U53G, U54A
B4: target 1 MT 5'PFS CUU 3'PFS AAU (mixed)
RNA 1: B1 RNA 1
RNA 2: B1 RNA 2 with G27C, A28U, A29U, C52A, U53A
B5: target 1 MT 5'PFS GAA 3'PFS CUA (mixed)
RNA 1: B1 RNA 1
RNA 2: B1 RNA 2 with U54A
B6: target 1 MT 5'PFS UCG 3'PFS AAA (mixed)
RNA 1: B1 RNA 1
RNA 2: B1 RNA 2 with G27U, A28C, A29G, C52A, U53A, U54A
B7: target 1 MT 5'PFS GGC 3'PFS UGU (mixed)
RNA 1: B1 RNA 1
RNA 2: B1 RNA 2 with A28G, A29C, C52U, U53G
B8: target 1 MT 5'PFS GGC 3'PFS UGA (mixed)
RNA 1: B1 RNA 1
RNA 2: B1 RNA 2 with A28G, A29C, C52U, U53G, U54A
B9: target 1 MT 5'PFS GAC 3'PFS CGG (mixed)
RNA 1: B1 RNA 1
RNA 2: B1 RNA 2 with A29C, U53G, U54G
B10: target 1 MT 5'PFS GGG 3'PFS AAU (mixed)
RNA 1: B1 RNA 1
RNA 2: B1 RNA 2 with A28G, A29G, C52A, U53A
B11: target 1 insA 3' of 11,insG 3' of 2 (mixed)
RNA 1: B1 RNA 1
RNA 2: GGGAAUGGAUCCACAUCUACGAAUUCGUACCAUAGAGAGGUAUAUCCGCUCGACCGAGAUCGGAAGAGCACACGU
B12: target 1 MT 5'PFS AAA 3'PFS UGA (mixed)
RNA 1: B1 RNA 1
RNA 2: B1 RNA 2 with G27A, C52U, U53G, U54A
B13: target 1 MT 5'PFS CUU 3'PFS AAC (mixed)
RNA 1: B1 RNA 1
RNA 2: B1 RNA 2 with G27C, A28U, A29U, C52A, U53A, U54C
B14: target 1 MT 5'PFS GAC 3'PFS CGU (mixed)
RNA 1: B1 RNA 1
RNA 2: B1 RNA 2 with A29C, U53G
B15: target 1 MT 5'PFS GAC 3'PFS CGC (mixed)
RNA 1: B1 RNA 1
RNA 2: B1 RNA 2 with A29C, U53G, U54C
B16: target 1 MT 5'PFS UUG 3'PFS ACC (mixed)
RNA 1: B1 RNA 1
RNA 2: B1 RNA 2 with G27U, A28U, A29G, C52A, U53C, U54C
B17: target 1 MT 5'PFS UUG 3'PFS CCU (mixed)
RNA 1: B1 RNA 1
RNA 2: B1 RNA 2 with G27U, A28U, A29G, U53C
B18: target 1 MT 5'PFS GGG 3'PFS AAA (mixed)
RNA 1: B1 RNA 1
RNA 2: B1 RNA 2 with A28G, A29G, C52A, U53A, U54A
B19: target 1 MT 5'PFS GGC 3'PFS UGG (mixed)
RNA 1: B1 RNA 1
RNA 2: B1 RNA 2 with A28G, A29C, C52U, U53G, U54G
B20: target 1 MT 5'PFS UAA 3'PFS UAC (mixed)
RNA 1: B1 RNA 1
RNA 2: B1 RNA 2 with G27U, C52U, U53A, U54C
B21: target 1 MT 5'PFS GCU 3'PFS UAU (mixed)
RNA 1: B1 RNA 1
RNA 2: B1 RNA 2 with A28C, A29U, C52U, U53A
B22: target 1 MT 5'PFS UUG 3'PFS AAU (mixed)
RNA 1: B1 RNA 1
RNA 2: B1 RNA 2 with G27U, A28U, A29G, C52A, U53A
B23: target 1 MT 5'PFS UAA 3'PFS UAU (mixed)
RNA 1: B1 RNA 1
RNA 2: B1 RNA 2 with G27U, C52U, U53A
B24: target 1 MT 5'PFS UCG 3'PFS AAU (mixed)
RNA 1: B1 RNA 1
RNA 2: B1 RNA 2 with G27U, A28C, A29G, C52A, U53A
B25: target 1 MT 5'PFS GGG 3'PFS ACA (mixed)
RNA 1: B1 RNA 1
RNA 2: B1 RNA 2 with A28G, A29G, C52A, U53C, U54A
B26: target 1 del2 (mixed)
RNA 1: B1 RNA 1
RNA 2: GGGAAUGGAUCCACAUCUACGAAUUCGUACCAUAGAGAGGUUAUCCGCUACCGAGAUCGGAAGAGCACACGU
B27: target 1 MT 5'PFS UCC 3'PFS ACG (mixed)
RNA 1: B1 RNA 1
RNA 2: B1 RNA 2 with G27U, A28C, A29C, C52A, U53C, U54G
B28: target 1 MT 5'PFS CCU 3'PFS UCC (mixed)
RNA 1: B1 RNA 1
RNA 2: B1 RNA 2 with G27C, A28C, A29U, C52U, U53C, U54C
B29: target 1 MT 5'PFS CUU 3'PFS ACC (mixed)
RNA 1: B1 RNA 1
RNA 2: B1 RNA 2 with G27C, A28U, A29U, C52A, U53C, U54C
B30: target 1 MT 5'PFS UAA 3'PFS UAA (mixed)
RNA 1: B1 RNA 1
RNA 2: B1 RNA 2 with G27U, C52U, U53A, U54A
B31: target 1 MT 5'PFS CUC 3'PFS UAU (mixed)
RNA 1: B1 RNA 1
RNA 2: B1 RNA 2 with G27C, A28U, A29C, C52U, U53A
B32: target 1 MT 5'PFS UCC 3'PFS ACU (mixed)
RNA 1: B1 RNA 1
RNA 2: B1 RNA 2 with G27U, A28C, A29C, C52A, U53C
B33: target 1 MT 5'PFS UUG 3'PFS AAC (mixed)
RNA 1: B1 RNA 1
RNA 2: B1 RNA 2 with G27U, A28U, A29G, C52A, U53A, U54C
B34: target 1 MT 5'PFS CUU 3'PFS CCC (mixed)
RNA 1: B1 RNA 1
RNA 2: B1 RNA 2 with G27C, A28U, A29U, U53C, U54C
B35: target 1 MT 5'PFS AGG 3'PFS UGC (mixed)
RNA 1: B1 RNA 1
RNA 2: B1 RNA 2 with G27A, A28G, A29G, C52U, U53G, U54C
B36: target 1 MT 5'PFS GGG 3'PFS ACG (mixed)
RNA 1: B1 RNA 1
RNA 2: B1 RNA 2 with A28G, A29G, C52A, U53C, U54G
B37: target 1 insC 3' of 20,insU 3' of 2 (mixed)
RNA 1: B1 RNA 1
RNA 2: GGGAAUGGAUCCACAUCUACGAAUUCGUACCACUAGAGAGGUUAUCCGCUCUACCGAGAUCGGAAGAGCACACGU
B38: target 1 MT 5'PFS AAA 3'PFS UGU (mixed)
RNA 1: B1 RNA 1
RNA 2: B1 RNA 2 with G27A, C52U, U53G
B39: target 1 MT 5'PFS CCU 3'PFS UCG (mixed)
RNA 1: B1 RNA 1
RNA 2: B1 RNA 2 with G27C, A28C, A29U, C52U, U53C, U54G

Biological target: T1, EsCas13d, nuclease-dead
Assay: crRNA (strand 1, pre-loaded); Mg2+; 40 mM Tris-HCl pH 7.5, 150 mM NaCl, 6 mM MgCl2, 1 mM DTT, 0.1% Tween-20, 0.2 mg/ml BSA; 25 C; 10 min per concentration, then washed
Details: tags: His6-TwinStrep-SUMO cleaved; N-terminal SNAP kept (SNAP-Surface 488); label: 3' end held by stalled T7 RNA polymerase

Row | Binder | Kd
1 | B1 | 18.5 ± 7.5 nM
2 | B2 | ~46 nM
3 | B3 | ~20 nM
4 | B4 | 58 ± 27 nM
5 | B5 | ~40 nM
6 | B6 | 23 ± 8 nM
7 | B7 | 16.1 ± 2.25 nM
8 | B8 | 11.7 ± 1.45 nM
9 | B9 | ~35 nM
10 | B10 | 28 ± 4.5 nM
11 | B11 | 17.4 ± 0.8 nM
12 | B12 | 20.1 ± 3.45 nM
13 | B13 | 41 ± 17.5 nM
14 | B14 | 15.5 ± 5 nM
15 | B15 | 48.5 ± 14 nM
16 | B16 | 53 ± 23.5 nM
17 | B17 | 19.6 ± 4.1 nM
18 | B18 | 50 ± 11.5 nM
19 | B19 | ~60 nM
20 | B20 | 28 ± 7.5 nM

Row | Binder | Kd
21 | B21 | 73 ± 28 nM
22 | B22 | 22.5 ± 4.25 nM
23 | B23 | 29 ± 6 nM
24 | B24 | 30 ± 11 nM
25 | B25 | 28.5 ± 6.5 nM
26 | B26 | 33 ± 4 nM
27 | B27 | ~71.5 nM
28 | B28 | 14 ± 5 nM
29 | B29 | ~24 nM
30 | B30 | 46.5 ± 12 nM
31 | B31 | ~60 nM
32 | B32 | 14 ± 5 nM
33 | B33 | ~41.5 nM
34 | B34 | 80 ± 40 nM
35 | B35 | ~110 nM
36 | B36 | 17.5 ± 1.85 nM
37 | B37 | 14.7 ± 1 nM
38 | B38 | 40.5 ± 14.5 nM
39 | B39 | 14.2 ± 4.1 nM
